In patent CN109897110A (SHENZHEN BGI LIFE SCIENCE RES INSTITUTE, dated 2019):

Molecular target: T1, 人PCSK9抗原多肽 (前蛋白转化酶枯草溶菌素9, PCSK9) (human, UniProt Q8NBP7 31-692, limits assumed)
T1 construct: Expressed in CHO cells; also called PCSK9蛋白; Proprotein convertase subtilisin/kexin type 9
Assay: ProteOn (SPR), PCSK9 immobilised on chip, nanobody dilution series as analyte

T1 sequence (Q8NBP7 31-692 limits assumed): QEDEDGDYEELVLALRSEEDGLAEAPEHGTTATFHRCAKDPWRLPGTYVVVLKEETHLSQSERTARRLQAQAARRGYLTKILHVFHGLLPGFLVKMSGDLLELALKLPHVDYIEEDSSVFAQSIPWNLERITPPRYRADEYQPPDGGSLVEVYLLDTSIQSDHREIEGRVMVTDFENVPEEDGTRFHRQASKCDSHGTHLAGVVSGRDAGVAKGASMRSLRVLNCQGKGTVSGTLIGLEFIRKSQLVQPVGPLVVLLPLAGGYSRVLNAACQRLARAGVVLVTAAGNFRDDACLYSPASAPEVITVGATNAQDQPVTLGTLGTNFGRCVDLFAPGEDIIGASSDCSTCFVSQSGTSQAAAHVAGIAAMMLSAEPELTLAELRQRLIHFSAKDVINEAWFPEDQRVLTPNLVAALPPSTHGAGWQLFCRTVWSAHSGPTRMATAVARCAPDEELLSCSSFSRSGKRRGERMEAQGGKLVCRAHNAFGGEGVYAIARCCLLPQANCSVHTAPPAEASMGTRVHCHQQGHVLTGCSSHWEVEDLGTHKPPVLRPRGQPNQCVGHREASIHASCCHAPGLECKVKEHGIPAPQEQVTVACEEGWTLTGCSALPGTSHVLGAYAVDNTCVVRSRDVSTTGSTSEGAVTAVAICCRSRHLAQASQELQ

B1: PCSK9纳米抗体 (VHH)
VHH: ESGGGSVQAGGSLRLSCTVSGYTYSSNCMGWFRQAPGKEHEGVASIYIGGGSTYYADSVKGRFTISQDNAKNTVYLQMNSLKPEDTAMYYCAVGCQGLVDFGYWDQGTQVTVSS
notes: Expressed from pMECS in E. coli HB2151 and purified on a Ni column; also called PCSK9 Nb; PCSK9 nanobody; not shown: tags from the pMECS vector (HA tag detected with anti-HA antibody); purified on a
- Kd: 25 nM
- koff: 0.000112 s⁻¹
- kon: 4490 M⁻¹ s⁻¹
